For this experiment, the target named is transmembrane Crumbs2 (CRB2TM) (mouse (endogenous in E15.5 spinal cord sections)) (UniProt Q80YA8).
UniProt Q80YA8, sequence (Q80YA8 36-1282): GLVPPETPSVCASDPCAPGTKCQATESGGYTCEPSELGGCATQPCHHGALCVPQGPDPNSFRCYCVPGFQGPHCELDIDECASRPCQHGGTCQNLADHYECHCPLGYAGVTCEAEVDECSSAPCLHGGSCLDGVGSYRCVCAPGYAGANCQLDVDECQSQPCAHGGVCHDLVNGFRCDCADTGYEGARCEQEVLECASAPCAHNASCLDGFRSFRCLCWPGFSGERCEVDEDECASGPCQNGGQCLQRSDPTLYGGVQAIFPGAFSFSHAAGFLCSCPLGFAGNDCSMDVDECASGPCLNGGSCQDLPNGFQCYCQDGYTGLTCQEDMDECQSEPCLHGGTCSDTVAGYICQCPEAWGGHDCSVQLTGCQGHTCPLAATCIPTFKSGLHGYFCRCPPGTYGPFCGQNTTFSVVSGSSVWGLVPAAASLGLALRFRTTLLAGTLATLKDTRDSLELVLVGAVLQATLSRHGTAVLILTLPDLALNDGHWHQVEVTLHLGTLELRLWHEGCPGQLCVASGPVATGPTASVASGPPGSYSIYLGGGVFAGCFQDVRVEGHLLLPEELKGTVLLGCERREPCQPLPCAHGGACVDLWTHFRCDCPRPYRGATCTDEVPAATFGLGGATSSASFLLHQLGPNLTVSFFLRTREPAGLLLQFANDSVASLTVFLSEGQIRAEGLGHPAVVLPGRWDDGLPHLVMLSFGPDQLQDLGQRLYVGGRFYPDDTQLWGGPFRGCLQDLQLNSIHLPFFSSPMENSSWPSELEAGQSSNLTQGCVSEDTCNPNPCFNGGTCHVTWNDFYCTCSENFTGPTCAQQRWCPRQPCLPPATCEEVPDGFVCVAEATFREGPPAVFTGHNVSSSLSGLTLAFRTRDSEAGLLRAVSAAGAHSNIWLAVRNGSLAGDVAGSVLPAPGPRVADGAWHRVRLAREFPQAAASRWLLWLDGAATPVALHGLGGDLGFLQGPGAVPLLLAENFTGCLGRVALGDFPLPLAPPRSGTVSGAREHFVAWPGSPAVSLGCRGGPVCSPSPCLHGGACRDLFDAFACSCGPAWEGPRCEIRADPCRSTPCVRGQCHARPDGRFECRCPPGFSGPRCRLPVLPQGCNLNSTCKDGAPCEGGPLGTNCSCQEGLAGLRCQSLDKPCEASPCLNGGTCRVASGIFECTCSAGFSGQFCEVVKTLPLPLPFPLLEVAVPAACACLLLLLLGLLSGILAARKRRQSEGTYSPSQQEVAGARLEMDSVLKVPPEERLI

The substance “secreted Crumbs2 (CRB2S), His-tagged (natural protein)” had an apically localised ZO-1 in MDCK cells seeded at high density and cultured with high concentrations of CRB2S (77% of cells in control medium) of 23%.

The values above are taken from publication PMC7108746.
